{"source": "patent US7405286B2", "about": "“Stars—A muscle-specific actin-binding protein” (The Board of Regents of the University of Texas System, priority 2002, dated 2008)", "molecules": {"B1": {"name": "C96: STARS deletion mutant within the conserved region (protein)", "chain": "HKGDEGYGRPKEGTKTAERAKRAEEHIYREMMDMCFIICTMARHRRDGKIQVTFGDLFDRYVRISDKVVGILMRARKHGLVDFEGEMLWQGRDDHV", "modifications": "left off: small tags and cut ends", "notes": "STARS deletion mutant within the conserved region"}, "B2": {"name": "N233: STARS deletion mutant lacking residues from the carboxy-terminus into the conserved region (protein)", "chain": "MAPGEKESGEGPAKSALRKIRTATLVISLARGWQQWANENSIRQAQEPTGWLPGGTQDSPQAPKPITPPTSHQKAQSAPKSPPRLPEGHGDGQSSEKAPEVSHIKKKEVSKTVVSKTYERGGDVSHLSHRYERDAGVLEPGQPENDIDRILHSHGSPTRRRKCANLVSELTKGWRVMEQEEPTWRSDSVDTEDSGYGGEAEERPEQDGVQVAVVRIKRPLPSQVNRFTEKLNC", "modifications": "left off: small tags and cut ends", "notes": "STARS deletion mutant lacking residues from the carboxy-terminus into the conserved region"}, "B3": {"name": "N279: STARS deletion mutant lacking residues from the carboxy-terminus into the conserved region (protein)", "chain": "MAPGEKESGEGPAKSALRKIRTATLVISLARGWQQWANENSIRQAQEPTGWLPGGTQDSPQAPKPITPPTSHQKAQSAPKSPPRLPEGHGDGQSSEKAPEVSHIKKKEVSKTVVSKTYERGGDVSHLSHRYERDAGVLEPGQPENDIDRILHSHGSPTRRRKCANLVSELTKGWRVMEQEEPTWRSDSVDTEDSGYGGEAEERPEQDGVQVAVVRIKRPLPSQVNRFTEKLNCKAQQKYSPVGNLKGRWQQWADEHIQSQKLNPFSEEFDYELAMSTRL", "modifications": "left off: small tags and cut ends", "notes": "as for B2"}, "B4": {"name": "N346: STARS deletion mutant lacking residues from the carboxy-terminus into the conserved region (protein)", "chain": "MAPGEKESGEGPAKSALRKIRTATLVISLARGWQQWANENSIRQAQEPTGWLPGGTQDSPQAPKPITPPTSHQKAQSAPKSPPRLPEGHGDGQSSEKAPEVSHIKKKEVSKTVVSKTYERGGDVSHLSHRYERDAGVLEPGQPENDIDRILHSHGSPTRRRKCANLVSELTKGWRVMEQEEPTWRSDSVDTEDSGYGGEAEERPEQDGVQVAVVRIKRPLPSQVNRFTEKLNCKAQQKYSPVGNLKGRWQQWADEHIQSQKLNPFSEEFDYELAMSTRLHKGDEGYGRPKEGTKTAERAKRAEEHIYREMMDMCFIICTMARHRRDGKIQVTFGDLFDRYVRISDK", "modifications": "left off: small tags and cut ends", "notes": "as for B2"}, "B5": {"name": "N323: STARS deletion mutant lacking residues from the carboxy-terminus into the conserved region (protein)", "chain": "MAPGEKESGEGPAKSALRKIRTATLVISLARGWQQWANENSIRQAQEPTGWLPGGTQDSPQAPKPITPPTSHQKAQSAPKSPPRLPEGHGDGQSSEKAPEVSHIKKKEVSKTVVSKTYERGGDVSHLSHRYERDAGVLEPGQPENDIDRILHSHGSPTRRRKCANLVSELTKGWRVMEQEEPTWRSDSVDTEDSGYGGEAEERPEQDGVQVAVVRIKRPLPSQVNRFTEKLNCKAQQKYSPVGNLKGRWQQWADEHIQSQKLNPFSEEFDYELAMSTRLHKGDEGYGRPKEGTKTAERAKRAEEHIYREMMDMCFIICTMARH", "modifications": "left off: small tags and cut ends", "notes": "as for B2"}, "B6": {"name": "N304: STARS deletion mutant lacking residues from the carboxy-terminus into the conserved region (protein)", "chain": "MAPGEKESGEGPAKSALRKIRTATLVISLARGWQQWANENSIRQAQEPTGWLPGGTQDSPQAPKPITPPTSHQKAQSAPKSPPRLPEGHGDGQSSEKAPEVSHIKKKEVSKTVVSKTYERGGDVSHLSHRYERDAGVLEPGQPENDIDRILHSHGSPTRRRKCANLVSELTKGWRVMEQEEPTWRSDSVDTEDSGYGGEAEERPEQDGVQVAVVRIKRPLPSQVNRFTEKLNCKAQQKYSPVGNLKGRWQQWADEHIQSQKLNPFSEEFDYELAMSTRLHKGDEGYGRPKEGTKTAERAKRAEE", "modifications": "left off: small tags and cut ends", "notes": "as for B2"}, "B7": {"name": "Del234-279: larger internal STARS deletion mutant within the conserved region (protein)", "chain": "MAPGEKESGEGPAKSALRKIRTATLVISLARGWQQWANENSIRQAQEPTGWLPGGTQDSPQAPKPITPPTSHQKAQSAPKSPPRLPEGHGDGQSSEKAPEVSHIKKKEVSKTVVSKTYERGGDVSHLSHRYERDAGVLEPGQPENDIDRILHSHGSPTRRRKCANLVSELTKGWRVMEQEEPTWRSDSVDTEDSGYGGEAEERPEQDGVQVAVVRIKRPLPSQVNRFTEKLNCHKGDEGYGRPKEGTKTAERAKRAEEHIYREMMDMCFIICTMARHRRDGKIQVTFGDLFDRYVRISDKVVGILMRARKHGLVDFEGEMLWQGRDDHV", "modifications": "left off: small tags and cut ends", "notes": "larger internal STARS deletion mutant within the conserved region"}}, "key": {"SM22 promoter": {"test_system": "SM22 promoter", "assay": "SM22-luciferase reporter assay in transiently transfected COS cells", "type": "cell-based", "conditions": "for effect on SRF / SM22 promoter activation by STARS, in words (discussion): COS cells transfected with STARS", "description": "STARS Expression Plasmids. STARS expression constructs were generated using the pcDNA3.1 mammalian expression vector (Invitrogen) which was modified to contain an amino-terminal Myc-tag. Constitutively active RhoA (L63) and C3 transferase in Prk5 were generously provided by Dr. Alan Hall (University College, London, United Kingdom). The SM22-luciferase reporter 1343 bp promoter has been previously described (Li et al., 1995). The smooth muscle α actin-luciferase reporter contained the 4 kb promoter region ligated into the pBL3basic vector (Promega). The ANF reporter contained the 638 bp promoter region (a generous gift from Dr. Mona Nemer, Universite de Montreal, Montreal, Quebec, Canada). The 4× cfos reporter contained four tandem copies of the cfos CArG box with flanking sequences, as described (Chang et al., 2001). CMV-lacZ (Promega) was used as an internal control for transfection efficiency.\n(§1) Transient Transfections, Reporter Assays and Immunofluorescence Microscopy. COS cells were maintained in DMEM with 10% FBS. Eighteen hours after plating, the medium was changed to serum-free medium and transfections were performed at 50% confluency using FuGENE reagent-6 (Roche Molecular Biochemicals) following manufacturer's instructions. Each transfection used 0.15 μg of plasmid DNA for the reporter assays, and 0.5-1.0 μg immunohistochemistry. Cytochalasin D 2 μM (Sigma-Aldrich), and Y-27632 75 μM (Tocris) were added directly just after transfection. Latrunculin B 0.5 μM (dissolved in 10% ethanol, Calbiochem) was added 12 hr after transfection and 10% ethanol (final concentration 0.01%) was added to control wells. Cells were harvested 36 hr after transfection and their luciferase and β-galactosidase activity were measured."}, "F-actin": {"test_system": "F-actin", "assay": "Immunofluorescence / Phalloidin-TRITC staining of transfected COS cells", "type": "cell-based", "conditions": "for stress fibers observed: STARS-transfected COS cells, 2 μM CD or 0.5 μM LB, data not shown; for association with F-actin / actin stress fibers / bundling of actin stress fibers: transfected COS cells, Myc-tagged proteins", "experimental": "as §1\nFor measuring immunofluorescence, cells were rinsed with PBS and fixed in 4% paraformaldehyde for 10 min on ice. After rinsing with PBS, COS cells were incubated in 0.1% Triton X-100 in PBS for 5 min on ice. For rat neonatal cardiomyocytes, 1% Triton X-100 in PBS was used. Cells were blocked for 20 min at room temperature in 0.5% BSA in PBS for COS cells and in 1% BSA plus 3% goat serum in PBS for rat cardiomyocytes. Then, cells were incubated with first antibody diluted in 0.5% BSA in PBS for 30-60 min at room temperature or overnight at 4° C. Anti c-myc monoclonal antibody 9E10 (Santa Cruz) was used at a 1:200 dilution. Other antibodies were anti α-actinin monoclonal antibody (1:400; Sigma-Aldrich), α-tubulin antibody (1:2000; Sigma-Aldrich) and anti-vimentin antibody (1:500; Sigma-Aldrich). Secondary antibodies were anti mouse/rabbit IgG FITC or Texas red (Vector) used at a 1:200 dilution incubated with or without Phalloidin-TRITC (1:500; Sigma Aldrich)."}, "actin": {"test_system": "actin", "assay": "Co-immunoprecipitation of Myc-tagged proteins with actin in COS cells", "type": "binding", "conditions": "anti-Myc immunoprecipitation, anti-actin Western blot", "experimental": "Western Blot and Co-immunoprecipitation Assay. Immunoprecipitation and western blot analysis was performed as described previously (Lu et al., 2000). For immunoprecipitation, cells were incubated with 1 μg anti c-myc polyclonal antibody A14 (Santa Cruz). Western blots were performed with anti-actin monoclonal antibody C4 (1:100; Roche Molecular Biochemicals) or anti c-myc monoclonal antibody 9E10 (1:1000; Santa Cruse) followed by incubation with secondary antibody HRP-conjugated anti mouse-IgG (Santa Cruse, Vector). To detect signals, blots were incubated with ECL (Santa Cruz) for 1 min, and exposed to film (Eastman Kodak Co)."}}, "note": "“Also recorded” adds a separate entry of the source.", "data": [{"molecule": "RhoA L63: constitutively active RhoA mutant, expression vector [reference compound]", "values": [{"measurement": "activation of the SM22 promoter", "setting": "SM22 promoter; COS cells, STARS and RhoA L63 together", "result": "higher levels"}, {"measurement": "activation of the SM22 promoter", "setting": "SM22 promoter; COS cells, STARS or RhoA (L63) expression vector alone", "result": "comparable levels"}]}, {"molecule": "C[C@@H](N)[C@H]1CC[C@H](C(=O)Nc2ccncc2)CC1", "note": "[Y-27632, reference compound]", "values": [{"measurement": "effect on SRF / SM22 promoter activation by STARS, in words (discussion)", "setting": "SM22 promoter", "result": "only partially inhibits"}, {"measurement": "effect on SRF / SM22 promoter activation by STARS, in words (discussion)", "setting": "SM22 promoter; listed as Y27632", "result": "decreased SM22 promoter activity significantly"}, {"measurement": "reduction of the stimulatory activity of STARS on the SM22 promoter", "setting": "SM22 promoter; COS cells, Y-27632 75 μM", "result": 55, "unit": "%"}]}, {"molecule": "C=C1[C@@H](C)[C@H]2[C@H](Cc3ccccc3)NC(=O)[C@]23[C@H](OC(C)=O)/C=C/[C@@](C)(O)C(=O)[C@@H](C)C/C=C/[C@H]3[C@@H]1O", "note": "[CD, cytochalasin D, reference compound]", "values": [{"measurement": "increase of SM22 promoter activity by the agent itself", "setting": "SM22 promoter; COS cells, 2 μM CD, without STARS", "result": 8, "unit": "fold"}, {"measurement": "stress fibers observed", "setting": "F-actin", "result": "only short fragments of disrupted stress fibers"}]}, {"molecule": "C/C1=C/C(=O)O[C@@H]2C[C@@H](CC[C@H](C)/C=C\\CC1)O[C@@](O)([C@@H]1CSC(=O)N1)C2", "note": "[LB, latrunculin B, reference compound]", "values": [{"measurement": "effect on SRF / SM22 promoter activation by STARS, in words (discussion)", "setting": "SM22 promoter", "result": "inhibit the activity of STARS"}, {"measurement": "SM22-luciferase activity under LB treatment", "setting": "SM22 promoter; COS cells, 0.5 μM LB, even in cells transfected with STARS", "result": "abolished"}, {"measurement": "stress fibers observed", "setting": "F-actin", "result": "only short fragments of disrupted stress fibers"}]}, {"molecule": "B1", "values": [{"measurement": "association with F-actin / actin stress fibers", "setting": "F-actin", "result": "did not affect the association with F-actin; also recorded: just associates with actin stress fibers"}, {"measurement": "bundling of actin stress fibers", "setting": "F-actin", "result": "abolished the ability of STARS to bundle actin stress fibers"}]}, {"molecule": "B2", "values": [{"measurement": "association with F-actin / actin stress fibers", "setting": "F-actin", "result": "did not affect the association with F-actin"}, {"measurement": "bundling of actin stress fibers", "setting": "F-actin", "result": "abolished the ability of STARS to bundle actin stress fibers"}, {"measurement": "co-immunoprecipitation with actin", "setting": "actin", "result": "did not bind actin"}]}, {"molecule": "B3", "values": [{"measurement": "association with F-actin / actin stress fibers", "setting": "F-actin", "result": "did not affect the association with F-actin"}, {"measurement": "bundling of actin stress fibers", "setting": "F-actin", "result": "abolished the ability of STARS to bundle actin stress fibers"}, {"measurement": "co-immunoprecipitation with actin", "setting": "actin", "result": "did not bind actin"}]}, {"molecule": "B4", "values": [{"measurement": "association with F-actin / actin stress fibers", "setting": "F-actin", "result": "did not affect the association with F-actin"}, {"measurement": "bundling of actin stress fibers", "setting": "F-actin", "result": "abolished the ability of STARS to bundle actin stress fibers"}, {"measurement": "co-immunoprecipitation with actin", "setting": "actin", "result": "did not bind actin"}]}, {"molecule": "B5", "values": [{"measurement": "association with F-actin / actin stress fibers", "setting": "F-actin", "result": "did not affect the association with F-actin"}, {"measurement": "bundling of actin stress fibers", "setting": "F-actin", "result": "abolished the ability of STARS to bundle actin stress fibers"}, {"measurement": "co-immunoprecipitation with actin", "setting": "actin", "result": "did not bind actin"}]}, {"molecule": "B6", "values": [{"measurement": "association with F-actin / actin stress fibers", "setting": "F-actin", "result": "did not affect the association with F-actin"}, {"measurement": "bundling of actin stress fibers", "setting": "F-actin", "result": "abolished the ability of STARS to bundle actin stress fibers"}, {"measurement": "co-immunoprecipitation with actin", "setting": "actin", "result": "did not bind actin"}]}, {"molecule": "B7", "values": [{"measurement": "association with F-actin / actin stress fibers", "setting": "F-actin", "result": "able to associate with F-actin"}, {"measurement": "bundling of actin stress fibers", "setting": "F-actin", "result": "lost the ability to bundle actin fibers"}, {"measurement": "co-immunoprecipitation with actin", "setting": "actin", "result": "failed to co-immunoprecipitate"}]}]}
